Data taken from the supplement of paper PMC11780869.

System: Bacillus subtilis
Assay: cleaved RNA product abundance (RNA/gDNA barcode ratio) relative to median wild-type variant (ratio to wild type); higher = more accumulation of the downstream cleavage product
Method in brief: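 Reporter mRNAs (truncated aprE or tetM) carrying barcoded, mutagenized RNase Y cleavage-site windows were made from oligos with a 9% error rate and integrated into the B. subtilis chromosome. Cultures grew in LB at 37°C from OD600 0.0003 to 0.3. Cleaved RNA was gel-selected, reverse transcribed and barcode-sequenced alongside genomic DNA barcodes, with UMI collapsing. Cleaved product abundance is the RNA:gDNA barcode ratio per variant, scaled to the median wild-type variant.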

[1] = experiment (reporter, strain, medium): exp 2b: truncated aprE reporter, strain BJT200, cleavage site: cggR-gapA (positions -7 to +36 mutated)
[2] = experiment (reporter, strain, medium): exp 4a: truncated aprE reporter, strain BJT201 with 2% xylose (RNase J1 expressed), cleavage site: cggR-gapA (positions -7 to +36 mutated)
[3] = experiment (reporter, strain, medium): exp 8a: truncated aprE reporter, strain BJT201 with 2% xylose (RNase J1 expressed), cleavage site: glnRA (positions -5 to +31 mutated)
[4] = experiment (reporter, strain, medium): exp 6: tetM reporter, strain 168, cleavage site: cggR-gapA (positions -7 to +36 mutated)

Row | Sequence | cleaved RNA product abundance [1] | cleaved RNA product abundance [2] | cleaved RNA product abundance [3] | cleaved RNA product abundance [4]
1 | ACAGACGAAGGAGCCGCAAAGAAGATATTACGGGATGAATAATCCCTCAATATAAATATCTCTCACTTATTTAAA | 0.409 | 0.351 | – | –
2 | CGACATGTCCCGCTTCTTTCATTAATCCGTTAGGAACTGTTTTGCGATATACATTTACCTTTTAAGAGGAGGAAT | – | – | 0.312 | –
3 | CGACATGTCCCGCTTCTTTCATTAATCCATTAGCAACTGTTTTTCTATATACATTTACCTTTTAAGAGGAGGAAT | – | – | 0.319 | –
4 | ACAGACGAAGGAGCCGCAAAGAATTTATCAAGGGATGAATAATCCCTCAATATAAATATCTCTCACTTATTTAAA | 0.275 | 0.377 | – | –
5 | ACAGACGAAGGAGCCGCAAAGAAGTTATTAATGGATCAATAATCCCTCAATATAAATATCTCTCACTTATTTAAA | 0.0839 | 0.127 | – | –
6 | CGACATGTCCCGCTTCTTTCATTAAACCGTTAGCAACAGTTTTGCTATATACATTTACCTTTTAAGAGGAGGAAT | – | – | 1.01 | –
7 | ACAGACGAAGGAGCCGCATAGAAGTTATTAAGGGATGAATAATCCCCCAATATAAATATCTCTCACTTATTTAAA | 0.247 | 0.319 | – | –
8 | ACAGACGAAGGAGCCGCAAAGAAGTTATTAAGGGATGAAAAATCCCTCTATATAAATATCTCTCACTTATTTAAA | – | 0.535 | – | –
9 | ACAGACGAAGGAGCCGCAAAGAAGTTATAAAGGGATGAATAATCCCTCAATATAAATATCTCTCACTTATTTAAA | 0.363 | 0.454 | – | 0.4
10 | ACAGACGAAGGAGCCGCAAAGAAGCTATTAAGGGATGAATAATCCCTCAATATAAATATCTCTCACTTATTTAAA | 0.571 | 0.615 | – | 0.588
11 | ACAGACGAAGGAGCCGCAAAGAAGTTATTATAGGATGAATAATCCCTCAATATAAATATCTCTCACTTATTTAAA | 0.149 | 0.203 | – | –
12 | ACAGACGAAGGAGCCGCAAAGAAGTTAATAAGGAATGAATAATCCCTCAATATAAATATCTCTCACTTATTTAAA | 0.103 | 0.165 | – | –
13 | ACAGACGAAGGAGCCGCAAAGTAGTTATTAAGGGATGAACAATCCCTCAATATAAATATCTCTCACTTATTTAAA | – | 0.763 | – | –
14 | ACAGACGAAGGAGCCGCAAAGAAGGTATTAAGGAATGAATAATCCCTCAATATAAATATCTCTCACTTATTTAAA | 0.145 | 0.194 | – | –
15 | CGACATGTCCCGCTTCTTTCATTAATCCGTTAACAACTGTTTTGCTATATACATTTCCCTTTTAAGAGGAGGAAT | – | – | 0.155 | –
16 | CGACATGTCCCGCTTCTTTCATTAATCCGTTAGCAACTGTTTTGCGATATACATTTACGTTTTAAGAGGAGGAAT | – | – | 0.36 | –
17 | ACAGACGAAGGAGCCGCAAAGAAGTTATTCAGGGATGAATAATACCTCAATATAAATATCTCTCACTTATTTAAA | – | 0.134 | – | –
18 | ACAGACGAAGGAGCCGCAAAGAAGTTATTAAGGCATGAATAATCCCTCAAGATAAATATCTCTCACTTATTTAAA | 0.0843 | 0.142 | – | –
19 | ACAGACGAAGGAGCCGCAAAGAAGTTATTAAGGGATGAATATTCCCGCAATATAAATATCTCTCACTTATTTAAA | – | 0.221 | – | –
20 | ACAGACGAAGGAGCCGCAAAGATGTTATTAAGCGATGAATAATCCCTCAATATAAATATCTCTCACTTATTTAAA | 0.0873 | 0.11 | – | –
21 | ACAGACGAAGGAGCCGCATAGAAGTTATTAAGGGATGAATAATCACTCAATATAAATATCTCTCACTTATTTAAA | 0.134 | 0.166 | – | –
22 | ACAGACGAAGGAGCCGCAAAGAAGTAATTAAGGGATGAATAATCCCTCAACATAAATATCTCTCACTTATTTAAA | – | 0.21 | – | –
23 | ACAGACGAAGGAGCCGCAAAGAAGTTATAATGGGATGAATAATCCCTCAATATAAATATCTCTCACTTATTTAAA | 0.29 | 0.293 | – | –
24 | ACAGACGAAGGAGCCGCAAAGAAGTTATTAATAGATGAATAATCCCTCAATATAAATATCTCTCACTTATTTAAA | 0.0972 | 0.116 | – | –
25 | ACAGACGAAGGAGCCGCAAAGAAGTTATTAAGGGATTAAAAATCCCTCAATATAAATATCTCTCACTTATTTAAA | 0.941 | 0.629 | – | –
26 | CGACATGTCCCGCTTCTTTCATTAATCCGTAAGCAACTGTTTTGCTATATACATTAACCTTTTAAGAGGAGGAAT | – | – | 0.756 | –

Row | Sequence | cleaved RNA product abundance [1] | cleaved RNA product abundance [2] | cleaved RNA product abundance [3] | cleaved RNA product abundance [4]
27 | ACAGACGAAGGAGCCGCAAAGAAGTTATTAATGGATGAATAGTCCCTCAATATAAATATCTCTCACTTATTTAAA | 0.0972 | – | – | –
28 | ACAGACGAAGGAGCCGCAAAGAAGTTATTAAGGGATGAATAATCCCTCAATATAAAATATCTCTCACTTATTTAA | 0.806 | – | – | –
29 | ACAGACGAAGGAGCCGCATAGAAGTTATTAAGGGATGCATAATCCCTCAATATAAATATCTCTCACTTATTTAAA | – | 0.933 | – | –
30 | ACAGACGAAGGAGCCGCAAAGAAGTTATTAAAGGATGAATAATCCCTCAATATTAATATCTCTCACTTATTTAAA | – | 0.0494 | – | –
31 | ACAGACGAAGGAGCCGCAAATAAGTTATTAAGGGATGAATAAACCCTCAATATAAATATCTCTCACTTATTTAAA | – | 0.39 | – | –
32 | CGACATGTCCCGCTTCTTTCATTAATCCGTTAGCAACTGTTTTGCTATATATAATTACCTTTTAAGAGGAGGAAT | – | – | 0.919 | –
33 | ACAGACGAAGGAGCCGCAAAGAAGTTATTAAGGGATGAATAATACCTTAATATAAATATCTCTCACTTATTTAAA | – | 0.424 | – | –
34 | CGACATGTCCCGCTTCTTTCATTAATCCGTTAGCGACAGTTTTGCTATATACATTTACCTTTTAAGAGGAGGAAT | – | – | 0.233 | –
35 | CGACATGTCCCGCTTCTTTCATTAATCCGTTAATAACTGTTTTGCTATATACATTTAACTTTTAAGAGGAGGAAT | – | – | 0.205 | –
36 | ACAGACGAAGGAGCCGCAAAGAAGTTATTAATGGATGAATAATCCCTCAATAAAAATATCTCTCACTTATTTAAA | 0.136 | 0.108 | – | –
37 | CGACATGTCCCGCTTCTTTCATTAATCCGTTAGCAACTGTTTTGCTACATACATTAACCTTTTAAGAGGAGGAAT | – | – | 0.434 | –
38 | ACAGACGAAGGAGCCGCAAAAAAGTTACTAAGGGATGAATAATCCCTCAATATAAATATCTCTCACTTATTTAAA | 0.222 | – | – | –
39 | CGACATGTCCCGCTTCTTTCATTAATTCGTTAGCAACTGATTTGCTATATACATTTACCTTTTAAGAGGAGGAAT | – | – | 0.876 | –
40 | CGACATGTCCCGCTTCTTTCATTAATCAGTTAGCAACTGTTGTGCTATATACATTTACCTTTTAAGAGGAGGAAT | – | – | 0.354 | –
41 | CGACATGTCCCGCTTCTTTCATTAATCCCTAAGCAACTGTTTTGCTATATACATTTACCTTTTAAGAGGAGGAAT | – | – | 0.229 | –
42 | CGACATGTCCCGCTTCTTTCATTACTCCGTTAGCAAATGTTTTGCTATATACATTTACCTTTTAAGAGGAGGAAT | – | – | 1.14 | –
43 | ACAGACGAAGGAGCCGCAACAAGTTATTAAGGGATGAATAATCCCTCAATATAAATATCTCTCACTTATTTAAAG | – | 0.581 | – | –
44 | ACAGACGAAGGAGCCGCAAAGAAGTTATTAAGGGATCAATAATCGCTCAATATAAATATCTCTCACTTATTTAAA | – | 0.0655 | – | –
45 | CGACATGTCCCGCTTCTTTCATTAATCCGTTGGCAACTGTTTTGCTATATACATTTACCTTTTAAGAGGAGGAAT | – | – | 0.739 | –
46 | ACAGACGAAGGAGCCGCAAAGAAGTTATTAAGGGATGAATTATCCATCAATATAAATATCTCTCACTTATTTAAA | 0.163 | 0.144 | – | –
47 | ACAGACGAAGGAGCCGCAAAGAAGTTATTAATGGCTGAATAATCCCTCAATATAAATATCTCTCACTTATTTAAA | 0.11 | 0.0644 | – | –
48 | ACAGACGAAGGAGCCGCAAATAAGTTGTTAAGGGATGAATAATCCCTCAATATAAATATCTCTCACTTATTTAAA | – | 0.458 | – | –
49 | ACAGACGAAGGAGCCGCAAAGAAGATATTAAGGGATGAATAAGCCCTCAATATAAATATCTCTCACTTATTTAAA | – | 0.432 | – | –
50 | ACAGACGAAGGAGCCGCAAATAAGTTATTCAGGGATGAATAATCCCTCAATATAAATATCTCTCACTTATTTAAA | – | 1.09 | – | –
51 | ACAGACGAAGGAGCCGCAAAGAAGTTATTAAGGGATGAATAATCCGTCAATATAAATATCTCTCACTTATTTAAA | 0.167 | 0.234 | – | 0.247
52 | ACAGACGAAGGAGCCGCAAAGAAGTTATTAAGAGGTGAATAATCCCTCAATATAAATATCTCTCACTTATTTAAA | – | 0.253 | – | –
